Experimental data: patent US9850293B2, “Targeting trastuzumab-resistant HER2+ breast cancer with a HER3-targeting nanoparticle” (priority 2014, dated 2017)

How the values were obtained:
MDA-MB-435 (HER2+) = assay: Targeted toxicity, cell survival by MTT assay; format: cell-based, human
Method: (§1) FIG. 7 illustrates targeted toxicity. […] Cell titer was determined by metabolic (i.e. MTT) assay. FIG. 7 upper panel illustrates the effect of HerDox on MDA-MB-231 (HER2−) and MDA-MB-435 (HER2+) cell survival. Relative surviving cell numbers are represented as a % of corresponding untreated cells. […] Relative survival (as % of untreated cells) is shown for Day 3 of treatment.
FIG. 8 illustrates receptor specificity. MDA-MB-435 (HER2+) cells were incubated with free ligand (eHRG) at 10× molar excess of HerDox for one hour at 4° C. Media was aspirated to remove free eHRG and fresh media containing HerDox (0.5 μM) was added to cells. Cell survival was measured by MTT assay and represented as a % of relative untreated cell numbers.
(§2) N=3. […] Bar, about 4 μm. […] (E) compares HerDox and Dox on off-target tissue. […] Green fluorescence in nuclei indicates apoptosis (positive TUNEL stain).
(§3) By three days, HerDox reduced HER2+ cell numbers by over 75% whereas HER2− cell survival was unaffected (FIG. 7). […] These findings emphasize the importance of targeting by showing that the untargeted drug affects nontarget (i.e. HER2−) cells. […] To test receptor targeting, the inventors used free heregulin ligand (Her or eHRG) as a competitive inhibitor. […] As a final in vitro challenge, the inventors tested whether HerDox induces toxicity specifically to HER2+ cells in a mixed culture of HER2+ and HER2− breast cancer cells. To do this, the inventors produced a HER2− cell line tagged with green fluorescent protein (GFP) for cell identification in the mixed culture (FIG. 9-A). […] Altogether, these findings indicate that HerDox has the capacity to preferentially target toxicity to HER2+ cells. […] In serum-containing media, no such loss from HerDox is detectable. […] Co-migration of HerPBK10 bands further verified that the conjugates remained intact in the cell media.

MDA-MB-231 (HER2−) = assay: Targeted toxicity, cell survival by MTT assay; format: cell-based, human; settings: 0.5 μM with respect to Dox; HerPBK10 0.1 μM; day 3
Method: as §1, §2, §3

[1] = Stability in mouse whole blood; format: in vitro ADME; settings: 0.12 mg/mL Dox, 37° C., up to one hour
Method: FIG. 13 illustrates stability in mouse whole blood. […] As 0.5 mM EDTA was used as an anticoagulant, HerDox in EDTA alone (− blood) was processed in parallel. Bars represent fluorescence of retained (retentates) or released (filtrates) Dox as a percentage of the total fluorescence of each sample. Scale of Y-axis is adjusted to show presence of filtrate samples. N=3 per treatment.
(A) depicts a graphic of HerDox formed by non-covalent, serum-stable self-assembly, showing HerPBK10 with functional domains delineated, and electrophilic binding with Dox-intercalated ds-oligo. (B) depicts a CryoEM image of HerDox particles. (C) is a HPLC chromatogram of HerDox showing elution profile of Dox absorbance. […] (D) illustrates the protection of ds-oligo from serum nuclease digestion by HerPBK10. The ds-oligo was incubated for 20 min in 100% mouse serum (Abcam, Cambridge, Mass., USA) before PAGE and EtBr staining to visualize the DNA. (E) illustrates that HerDox remains stable in blood. […] N=3. *, p<0.05, compared to respective retentates.
As the anticoagulant, 0.5 mM EDTA, was present in the blood collection, parallel samples were incubated at 37° C. in EDTA alone. Samples representing input HerDox (before incubation in blood) were incubated at 37° C. in HEPES-buffered saline.

B1: HerDox: non-covalent complex of HerPBK10, double-stranded oligonucleotide and intercalated Dox (Unit A+Unit B+Unit C) (conjugate)
chain: SHLVKCAEKEKTFCVNGGECFMVKDLSNPSRYLCKCQPGFTGARCTENVPMKVQNQEKAEELYQKMRRAAMYEEGPPPSYESVVSAAPVAAALGSPFDAPLDPPFVPPRYLRPTGGRNSIRYSELAPLFDTTRVYLVDNKSTDVASLNYQNDHSNFLTTVIQNNDYSPGEASTQTINLDDRSHWGGDLKTILHTNMPNVNEFMFTNKFKARVMVSRLPTKDNQVELKYEWVEFTLPEGNYSETMTIDLMNNAIVEHYLKVGRQNGVLESDIGVKFDTRNFRLGFDPVTGLVMPGVYTNEAFHPDIILLPGCGVDFTHSRLSNLLGIRKRQPFQEGFRITYDDLEGGNIPALLDVDAYQASLKDDTEQGGGGAGGSNSSGSGAEENSNAAAAAMQPVEDMNDHAIRGDTFATRAEEKRAEAEAAAEAAAPAAQPEVEKPQKKPVIKPLTEDSKKRSYNLISNDSTFTQYRSWYLAYNYGDPQTGIRSWTLLCTPDVTCGSEQVYWSLPDMMQDPVTFRSTRQISNFPVVGAELLPVHSKSFYNDQAVYSQLIRQFTSLTHVFNRFPENQILARPPAPTITTVSENVPALTDHGTLPLRNSIGGVQRVTITDARRRTCPYVYKALGIVSPRVLSSRTFKKKKKKKKKK
modifications: left off: small tags and cut ends
reduction of HER2+ cell numbers (MDA-MB-435 (HER2+); 0.5 μM with respect to Dox, by three days): over 75% | cell killing with free heregulin ligand as competitive inhibitor (MDA-MB-435 (HER2+); eHRG at 10× molar excess, HerDox 0.5 μM): completely inhibited cell killing | effect on HER2− cell survival (MDA-MB-231 (HER2−)): unaffected | loss of Dox from conjugate in whole blood [1]: no detectable loss of Dox from the conjugate
